# Reference: publication PMC6719061
# Columns and labels:
# [1] = biological target: Lst-ABD, recombinant fusion protein with lysostaphin at the N-terminus and the albumin-binding domain from streptococcal protein G at the C-terminus (not stated | Streptococcus sp.)
# [2] = biological target: Lst-ABD, recombinant fusion protein with lysostaphin at the N-terminus and the albumin-binding domain from streptococcal protein G at the C-terminus (not stated | Streptococcus sp.); experiment: photonic crystal-based biosensor (EVA 2.0); Lst-ABD immobilised covalently by amine coupling (EDC/NHS) on a carboxylate-derivatized photonic crystal chip; albumin in PBST (PBS + 0.02% Tween-20, pH 7.4) pumped through the flow cell, ~5 min association, ~5 min dissociation; RSA 250, 42, 7 and 1.2 µg/mL, BSA 1 mg/mL; heterogeneous binding model with two independent sites, koff1 = koff2 fixed
substance,measurement,setting,value
rat serum albumin (from UniProt P02770 25-608) (natural protein),"rate of clearing of S. aureus ATCC 29213 cell suspension (turbidimetry, OD 550 nm) by Lst-ABD in the presence of 100 µg/mL RSA, relative to lysostaphin",[1],25%
same,KD1 (high-affinity site),[2],2.3 nM
same,KD2 (low-affinity site),[2],20 nM
same,koff,[2],5.9e-05 s⁻¹
same,kon1 (high-affinity site),[2],26000 M⁻¹ s⁻¹
same,kon2 (low-affinity site),[2],3000 M⁻¹ s⁻¹
